Data reported in US8859496B2, “Pharmaceutical composition using connective-tissue growth factor” (Postech Academy-Industry Foundation, priority 2010, dated 2014).
No end group written: not given here.

Assays:
FPRL1 [1] = target: T1, FPRL1 (Homo sapiens, UniProt P25090); assay: ERK phosphorylation in FPRL1/RBL cells (immunoblot); assay type: cell-based; conditions: FPRL1/RBL cells
T1 construct: expressed in transfected cells; host or cells: rat basophil leukemia RBL-2H3 cells, kept under G418
T1 sequence (P25090 1-351): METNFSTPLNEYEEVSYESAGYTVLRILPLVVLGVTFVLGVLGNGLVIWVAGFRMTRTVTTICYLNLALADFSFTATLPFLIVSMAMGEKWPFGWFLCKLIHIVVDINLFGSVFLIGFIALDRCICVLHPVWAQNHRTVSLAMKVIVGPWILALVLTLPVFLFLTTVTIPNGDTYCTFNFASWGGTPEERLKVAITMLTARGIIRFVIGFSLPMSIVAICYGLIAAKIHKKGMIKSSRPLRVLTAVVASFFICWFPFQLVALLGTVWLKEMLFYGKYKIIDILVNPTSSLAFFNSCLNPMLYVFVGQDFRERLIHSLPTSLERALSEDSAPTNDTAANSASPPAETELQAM
Description: Vector/RBL cells, FPR/RBL cells, FPRL1/RBL cells, and HUVECs were cultured to confluence, and serum-starved. The stimulated cells (1×10^5 cells) were washed with PBS twice, dissolved in 1 ml of sample buffer (50 mM Tris-HCl, 100 mM NaCl, 0.1% SDS, 1% Nonidet P-40, 50 mM NaF, 1 mM Na3VO4, 1 μg/ml aprotinin, 1 μg/ml pepstatin, and 1 μg/ml leupeptin), heated at 95° C. for 30 seconds, separated with SDS-PAGE, and then, transferred to a nitrocellulose film. Immunoblot was conducted using anti-phospho-ERK (extracellular signal regulated kinase)1/2 (Thr^202/Tyr^204)(Cell Signaling Technology, Beverly, Mass., USA), anti-ERK1/2 (Cell Signaling Technology, Beverly, Mass., USA), anti-CTGF (Abcam, Cambridge, Mass., USA), anti-Actin (Sigma, St. Louis, Mo., USA), or anti-Flag (Sigma, St. Louis, Mo., USA) antibody, and then, the film was visualized with a chemiluminescence substrate (Amersham Pharmacia).
To confirm this, the inventors obtained conditioned medium (CM) in HUVEC treated with VEGF-A, and FPRL1-overexpressing cells FPRL1/RBL were treated therewith in the concentration of 10 ng/ml or 50 ng/ml for 8 hours. At this time, as positive control, FPRL1 agonistic peptide WKYMVm (Trp-Lys-Tyr-Met-Val-D-Met, SEQ ID NO. 1) was treated with 10 nM.
After the treatment, immunoblot was conducted on cell lysate that was transferred to a nitrocellulose film with anti-phospho ERK (extracellular signal regulated kinase)1/2 and anti-ERK1/2 antibody (Cell Signaling Technology, Beverly, Mass., USA), and then, the film was visualized with a chemiluminescence substrate (Amersham Pharmacia), and the results are shown in FIG. 1.
Meanwhile, the above described vector/RBL, FPR/RBL, or FPRL1/RBL cells were respectively treated with the above conditioned medium or VEGF-A at the concentration of 10 ng/ml for 8 hours, and positive control was treated with 10 nM of agonistic peptide WKYMVm (SEQ ID NO. 1).
As described in the <Experiment method 5>, FPRL1/RBL cells were treated with 40 ug of the HPLC fraction of the conditioned medium for 5 minutes, and the result confirming whether ERK phosphorylation occurred as described in the <Experiment result 1> was shown in FIG. 3.
To confirm whether the purified proteins induce ERK phosphorylation in FPRL1/RBL cells, immunoblot was conducted as described in the <Experiment result 1>, and the results are shown in FIG. 9.
ERK phosphorylation induction of CTGF linker polypeptide was compared to recombinant human CTGF (rhCTGF). Specifically, FPRL1/RBL cells were treated with CTGF linker polypeptide and rhCTGF for 5 minutes at various concentrations, ERK phosphorylation was measured, and the results are shown in FIG. 11. […]

FPRL1 [2] = target: T1, FPRL1; assay: Intracellular Ca2+ measurement (fluo-3-AM) in FPRL1/RBL, vector/RBL or FPR/RBL cells; assay type: cell-based
Description: (§1) FPRL1/RBL, vector/RBL or FPR/RBL cells were cultured in a fluo-3-AM working solution containing 0.03% (w/v) plutonic F-127 (Molecular Probes) at 37° C. for 1 hour so that the final concentration of fluo-3-AM became 20 uM/L. After the culturing, fluo-3-AM fluorescence occurred at 488 nm with high-power Ar^+ laser in the cells, and the emission band was measured at 530 nm with photomultiplier. Fluorescence signal was detected using confocal laser scanning system (LSM 510 Meta; Carl Zeiss, Jena, Germany) equipped with Nikon E-600 Eclipse microscope. Fluorescence intensities before adding CTGF (F0) and after adding CTGF (F) were measured. Change in the intracelullar Ca^2+ concentration [Ca^2+]i was indicated by F/F0 ratio. From each cell, 50 to 120 images were scanned.
Since activation of FPRL1 increases intracellular Ca^2+ concentration, the inventors confirmed whether CTGF linker polypeptide activates FPRL1 to finally increase intracellular Ca^2+ concentration by the <Experiment method 8>, and the results are shown in FIG. 12.

HUVECs [3] = assay: Intracellular Ca2+ concentration in HUVECs; assay type: cell-based, human
Description: as §1
And, HUVECs were treated with the CTGF linker polypeptide or rhCTGF at various concentrations for 1 hour, it was confirmed whether intracellular Ca^2+ concentration increases by the above method, and the results are shown in FIG. 15.

HUVECs [4] = assay: HUVEC wound migration assay; assay type: cell-based, human
Description: Specifically, HUVECs inoculated on a 60-mm culture dish to confluence were wounded with the end of a pipette, and treated with linker polypeptide (10^−1˜10^2 nM) or recombinant CTGF (recombinant human CTGF, rhCTGF; BioVendor R&D, NC, USA) (10^1 or 10^2 nM) in Medium 199 to which 1% serum and 1 mM thymidine were added. After culturing 16 hours, the number of cells that migrated over a reference line was counted to quantify the degree of migration, and the cells were photographed with 50× magnification.
First, 20 ng/ml of VEGF-A was administered to HUVECs, the degree of cell proliferation, cell migration, or tube formation was confirmed by the <Experiment method 9>, and the results are shown in FIGS. 22 to 24. At this time, FPRL1 antagonist WRW4 was additionally added.

| Ca2+ concentration increase, cell specificity (FPRL1 [2]; confocal microscope, FPRL1/RBL, vector/RBL or FPR/RBL cells) | effect of antagonist on ERK phosphorylation induced by CTGF linker polypeptide or rhCTGF (FPRL1 [1]; 10 nM CTGF linker polypeptide or rhCTGF, WRW4 10 uM) | Substance | ERK phosphorylation compared to rhCTGF (FPRL1 [1]; 10 nM) | ERK phosphorylation compared to rhCTGF (FPRL1 [1]; various concentrations, 5 minutes) | Ca2+ concentration, concentration dependence (FPRL1 [2]; FPRL1/RBL cells) | Ca2+ increasing activity compared to rhCTGF and WKYMVm (FPRL1 [2]; FPRL1/RBL cells) | intracellular Ca2+ concentration in HUVECs (HUVECs [3]; various concentrations, 1 hour) | migration of HUVECs (HUVECs [4]; linker polypeptide 10^-1 to 10^2 nM, 16 hours, compared to recombinant CTGF) | effect of antagonist on intracellular Ca2+ increase by CTGF linker polypeptide (FPRL1 [2]; WRW4 10 uM) | effect of antagonist on Ca2+ increase by CTGF linker polypeptide in HUVECs (HUVECs [3]; WRW4 10 uM) | effect of antagonist on HUVEC migration induced by VEGF-A (HUVECs [4]; VEGF-A 20 ng/ml, WRW4 10 uM) | effect of antagonist on HUVEC migration induced by CTGF linker polypeptide (HUVECs [4]; WRW4 10 uM) |
| --- | --- | --- | --- | --- | --- | --- | --- | --- | --- | --- | --- | --- |
| increased only in FPRL1/RBL cells |  | EWVCDEPKDQTVVGPALAAYRLEDTFGPDPTMIRANCLV (EWVCDEPKDQTVVGPALAAYRLEDTFGPDPTMIRANCLV-NH2; cysteine pairing not given here) [CTGF linker polypeptide] | induces ERK phosphorylation to a similar level to rhCTGF | induces ERK phosphorylation to a similar level to rhCTGF | increases dependently upon the concentration of CTGF linker polypeptide | more effective than rhCTGF and is similar to positive control of FPRL1 agonist WKYMVm | increases intracellular Ca^2+ concentration in a concentration-dependent manner | induces migration of HUVECs in a concentration-dependent manner more effectively than recombinant CTGF |  |  |  |  |
|  | ERK phosphorylation is inhibited | WRWWWW (FPRL1 antagonist) [WRW4] |  |  |  |  |  |  | the degree of intracellular Ca^2+ concentration increase by CTGF linker polypeptide decreases | that's not the case when the cells are treated with FPRL1 antagonist WRW4 | the cell migration is not induced | the cell migration is not induced |
